± gives the uncertainty stated by the source.
Assay: self-splicing fitness, log relative to wild type (ln ratio); higher = more splicing; Tetrahymena group I intron in knt gene, E. coli kanamycin selection, DiMSum; sequences stand for … in CUCUCU…GGAGGGAAAAGUUAUCAGGCAUGCACCUGGUAGCUAGUCUUUAAACCAAUAGAUUGCAUCGGUUUAAAAGGCAAGACCGUCAAAUUGCGGGAAAGGGGUCAACAGCCGUUCAGUACCAAGUCUCAGGGGAAACUUUGAGAUGGCCUUGCAAAGGGUAUGGUAAUAAGCUGACGGACAUGGUCCUAACCACGCAGCCAAGUCCUAAGUCAACAGAUCUUCUGUUGAUAUGGAUGCAGUUCACAGACUAAAUGUCGGUCGGGGAAGAUGUAUUCUUCUCAUAAGAUAUAGUCGGACCUCUCCUUAAUGGGAGCUAGCGGAUGAAGUGAUGCAACACUGGAGCCGCUGGGAACUAAUUUGUAUGCGAAAGUAUAUUGAUUAGUUUUGGAGUACUCGUGGUCG
Summary of the method: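 Six replicate transformations of E. coli BL21(DE3) with a pET-22b(+) library were grown overnight at 37°C or 30°C. The library randomised all eight P1ex-region intron nucleotides, the intron lying in the knt kanamycin-resistance gene, and plates were LB agar with or without 25 μg/mL kanamycin plus 100 μg/mL carbenicillin, 50 μM IPTG and 0.2% rhamnose. Pooled colonies were amplicon-sequenced on an Illumina HiSeq 2500, and fitness is the DiMSum error-weighted combination of wild-type-normalised replicate fold changes, kanamycin versus none.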

Sequence | self-splicing fitness (ln) (30 °C) | self-splicing fitness (ln) (37 °C)
ACGAAGCAAUAUUACGCCAC | -3.08 ± 0.19 | -2.56 ± 0.28
ACGAAGCAAUAUUACGCCCA | -1.11 ± 0.17 | -0.748 ± 0.26
ACGAAGCAAUAUUACGCCGA | -0.564 ± 0.086 | -0.414 ± 0.1
ACGAAGCAAUAUUACGGCCA | -0.778 ± 0.091 | 0.402 ± 0.095
ACGAAGCAAUAUUACGGCUA | 0.0742 ± 0.099 | 0.022 ± 0.11
ACGAAGCAAUAUUACGGGGC | -3.36 ± 0.14 | -2.76 ± 0.16
ACGAAGCAAUAUUACGGGUG | -1.74 ± 0.069 | -1.36 ± 0.083
ACGAAGCAAUAUUACGGUAU | -2.57 ± 0.093 | -1.27 ± 0.091
ACGAAGCAAUAUUACGGUUU | -3.17 ± 0.13 | -1.89 ± 0.12
ACGAAGCAAUAUUACGUCGA | -2.34 ± 0.12 | -1.65 ± 0.1
ACGAAGCAAUAUUACGUCGC | -3.22 ± 0.21 | -1.24 ± 0.17
ACGAAGCAAUAUUACGUGCG | -1.35 ± 0.074 | -1.36 ± 0.089
ACGAAGCAAUAUUACGUGCU | -2.96 ± 0.12 | -1.84 ± 0.14
ACGCAGCAAUAUUACGAAUC | -4.07 ± 0.34 | -2.11 ± 0.22
ACGCAGCAAUAUUACGAAUU | -4.01 ± 0.23 | -1.48 ± 0.1
ACGCAGCAAUAUUACGCGCA | -0.215 ± 0.096 | 0.231 ± 0.11
ACGCAGCAAUAUUACGCGUG | -3.43 ± 0.18 | -2.07 ± 0.17
ACGCAGCAAUAUUACGGAGU | -2.79 ± 0.093 | -2.08 ± 0.12
ACGCAGCAAUAUUACGGCCA | -0.646 ± 0.092 | 0.161 ± 0.12
ACGCAGCAAUAUUACGGCUU | -0.345 ± 0.046 | -0.227 ± 0.057
ACGCAGCAAUAUUACGGGAU | -2.32 ± 0.079 | -1.41 ± 0.089
ACGCAGCAAUAUUACGGUAU | -2.67 ± 0.15 | -1.03 ± 0.12
ACGCAGCAAUAUUACGGUGA | -1.39 ± 0.05 | 0.18 ± 0.063
ACGCAGCAAUAUUACGUCGA | -2.34 ± 0.11 | -1.34 ± 0.092
ACGCAGCAAUAUUACGUGCU | -3.65 ± 0.18 | -2.9 ± 0.19
ACGCAGCAAUAUUACGUGUC | -3.37 ± 0.14 | -2.71 ± 0.2

Sequence | self-splicing fitness (ln) (30 °C) | self-splicing fitness (ln) (37 °C)
ACGCAGCAAUAUUACGUUCC | -1.71 ± 0.11 | -2.26 ± 0.19
ACGCAGCAAUAUUACGUUGU | -3.57 ± 0.13 | -2.84 ± 0.12
ACGGAGCAAUAUUACGAGUU | -3.23 ± 0.22 | -2.54 ± 0.33
ACGGAGCAAUAUUACGAUAU | -2.48 ± 0.21 | -2.12 ± 0.23
ACGGAGCAAUAUUACGAUGA | -2.56 ± 0.12 | -2.57 ± 0.19
ACGGAGCAAUAUUACGAUUC | -2.11 ± 0.32 | 
ACGGAGCAAUAUUACGCCUA | -2.13 ± 0.28 | -1.6 ± 0.27
ACGGAGCAAUAUUACGCUAG | -2.63 ± 0.25 | -2.16 ± 0.34
ACGGAGCAAUAUUACGGCCA | -1.69 ± 0.25 | -2.11 ± 0.23
ACGGAGCAAUAUUACGGGAC | -2.93 ± 0.39 | -2.69 ± 0.36
ACGGAGCAAUAUUACGGGUG | -3.61 ± 0.18 | -3.18 ± 0.22
ACGGAGCAAUAUUACGUAGU | -2.37 ± 0.11 | -1.36 ± 0.12
ACGGAGCAAUAUUACGUCCG | -3.13 ± 0.37 | -2.36 ± 0.42
ACGGAGCAAUAUUACGUGGC | -4.63 ± 0.42 | 
ACGGAGCAAUAUUACGUUUA | -3.14 ± 0.2 | -2.68 ± 0.21
ACGGAGCAAUAUUACGUUUU |  | -3.08 ± 0.2
ACGUAGCAAUAUUACGAAAC | -2.02 ± 0.45 | -2.26 ± 0.4
ACGUAGCAAUAUUACGACAG | -2.56 ± 0.13 | -0.828 ± 0.13
ACGUAGCAAUAUUACGACUG | -1.78 ± 0.13 | -0.836 ± 0.15
ACGUAGCAAUAUUACGAUUC | -2.39 ± 0.11 | -2.41 ± 0.21
ACGUAGCAAUAUUACGCAGA | -3.08 ± 0.27 | -2.48 ± 0.18
ACGUAGCAAUAUUACGCCAC | -4.5 ± 0.39 | -2.54 ± 0.44
ACGUAGCAAUAUUACGCCCA | -0.614 ± 0.12 | -0.952 ± 0.14
ACGUAGCAAUAUUACGCCCU | -0.282 ± 0.11 | -0.245 ± 0.095
ACGUAGCAAUAUUACGCGGG | -2.32 ± 0.12 | -0.863 ± 0.11
ACGUAGCAAUAUUACGCUGA | -1.81 ± 0.089 | -0.483 ± 0.085

Sequence | self-splicing fitness (ln) (30 °C) | self-splicing fitness (ln) (37 °C)
ACGUAGCAAUAUUACGCUGC | -3.09 ± 0.34 | -1.44 ± 0.38
ACGUAGCAAUAUUACGGCCA | 0.73 ± 0.19 | 0.143 ± 0.18
ACGUAGCAAUAUUACGGCGC | -1.11 ± 0.083 | -0.695 ± 0.098
ACGUAGCAAUAUUACGGCUU | 0.0669 ± 0.089 | 0.194 ± 0.11
ACGUAGCAAUAUUACGGUAC | -3.46 ± 0.18 | -2.57 ± 0.3
ACGUAGCAAUAUUACGGUCC | -1.64 ± 0.15 | -0.357 ± 0.15
ACGUAGCAAUAUUACGUAAC | -3.5 ± 0.37 | -2.46 ± 0.48
ACGUAGCAAUAUUACGUACA | -2.02 ± 0.25 | -0.998 ± 0.22
ACGUAGCAAUAUUACGUAGU | -3.78 ± 0.23 | -1.26 ± 0.16
ACGUAGCAAUAUUACGUAUC | -3.45 ± 0.24 | -2.89 ± 0.26
ACGUAGCAAUAUUACGUGAA | -3.92 ± 0.23 | -1.82 ± 0.17
ACGUAGCAAUAUUACGUGAG | -3.75 ± 0.17 | -2.55 ± 0.14
ACGUAGCAAUAUUACGUGUA | -2.51 ± 0.14 | -2.2 ± 0.14
ACGUAGCAAUAUUACGUGUC | -3.68 ± 0.32 | -2.48 ± 0.37
ACGUAGCAAUAUUACGUUGA | -3.4 ± 0.29 | -2.78 ± 0.28
ACGUAGCAAUAUUACGUUGG | -4.55 ± 0.31 | -2.85 ± 0.25
ACUAAGCAAUAUUACGAACG | -1.1 ± 0.1 | -0.438 ± 0.15
ACUAAGCAAUAUUACGAAUU | -2.52 ± 0.096 | -0.972 ± 0.089
ACUAAGCAAUAUUACGACCA | -0.124 ± 0.23 | 0.571 ± 0.2
ACUAAGCAAUAUUACGACGA | 0.0648 ± 0.13 | 0.181 ± 0.13
ACUAAGCAAUAUUACGAGGU | -3 ± 0.14 | -3.37 ± 0.25
ACUAAGCAAUAUUACGAUAA | -1.94 ± 0.17 | -0.57 ± 0.17
ACUAAGCAAUAUUACGAUAU | -1.39 ± 0.12 | -2.28 ± 0.16
ACUAAGCAAUAUUACGCAUG | -2.31 ± 0.091 | -0.766 ± 0.091
ACUAAGCAAUAUUACGCCAG | -0.955 ± 0.14 | -0.843 ± 0.2

— the supplement of paper PMC7877785
